PMC6461199

B1: RNA12 (ssRNA)
RNA: GUGUGAAUGAAU
B2: NegRNA12 (ssRNA)
RNA: AUUCAUUCACAC
B3: RNA12S1 (ssRNA)
RNA: UAGAGUAUGAUG
B4: RNA12S2 (ssRNA)
RNA: AAGUGUGGUAUA
B5: NegRNA12S1 (ssRNA)
RNA: UUAUACCUACCA
B6: NegRNA12S2 (ssRNA)
RNA: CUCACAUUAUCA
B7: RNA36 (ssRNA)
RNA: GUGUGAAUGAAUGUGUGAAUGAAUGUGUGAAUGAAU

What follows are binders tested against TDP-43 N-RRM1-2 (UniProt Q13148 1-269) (assay: BLI).
TDP-43 N-RRM1-2, sequence (Q13148 1-269): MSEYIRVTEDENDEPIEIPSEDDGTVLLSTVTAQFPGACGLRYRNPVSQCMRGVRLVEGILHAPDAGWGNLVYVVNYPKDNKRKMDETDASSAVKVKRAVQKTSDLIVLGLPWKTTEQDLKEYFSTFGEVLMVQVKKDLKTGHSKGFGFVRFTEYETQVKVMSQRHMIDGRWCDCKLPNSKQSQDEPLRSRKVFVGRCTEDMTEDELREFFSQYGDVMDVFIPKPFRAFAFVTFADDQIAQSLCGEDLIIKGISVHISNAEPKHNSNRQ
Binder B1 has a Kd of 6.3 nM.
B2 gave a Kd of 1900 nM.
For B3, the Kd was 60 nM.
B4 showed a Kd of 75 nM.
B5 showed a Kd of 1650 nM.
Work on B6 yielded a Kd of 1340 nM.
B7 was tested, and the Kd was 22 nM.
